B1: NucL: nucleolytic enzyme of about 66.5 kDa secreted by Streptomyces sp. MBE174; SEQ ID NO. 4 (protein)
chain: MASQSVTRLAALTVAATCSAASVVVLGPPAHADSVRIHDIQGTTRISPYAGRQVADVPGVVTGVRDHGSSRGFWFQDPRPDDDPATSEGVFVFTGSAPGVEAGDAVTVSGTVSEFVPGGTASGNQSLTEITRPTVTVVSRGNPVPDPVVVSARSVPHAYAPAGDAAANGSVNALPLRPDRYALDYYESLEGMNVQVADARVVGATDPYTELWVTVKPGENASPRGGTVYGSRDAQNTGRLQIQTLGVPAGFPAADVGDTLAGATTGPLDYNQFGGYTLVARSLGTLTAGGLARETTREQHRDELSVATYNVENLDPSDGTFAAHAEAIVRNLRSPDIVSLEEIQDDNGATDDGTVTAGVTVGKLIDAVVAAGGPRYDWRSVDPVDKADGGQPGGNIRQVFLFDPRRVSFADRPGGDAVTATGVVKVRGKAALTHSPGRVDPANPAWLNSRKPLAGEFSFRGRTVFVIANHFASKGGDQGLTSQYQPPARSSETQRHLQATAVNTFVKQILAVQKNADVIALGDINDFEFSGTTERLEAGGALWSAVRSLPPGERYSYVYQGNSQVLDQILVSPSIRRGHLSYDSVHINAEFHDQISDHDPQVLRYRP
modifications: Streptmyces sp. MBE174
B2: NucS: low-molecular-weight nucleolytic enzyme, about 17 to 21 kDa, secreted by Streptomyces sp. MBE174; SEQ ID NO. 3 (protein)
chain: MPKLYARRRFAVLAALTGLIASAGLFHGPAASAALPTPVSAATARGYLASLKVAPENRTGYKRDLFPHWITQSGTCNTRETVLKRDGTNVVTDAACAATSGSWYSPFDGATWTAASDVDIDHLVPLAEAWDSGASAWTTAQRQAFANDLTRPQLLAVTDTVNQSKGDKDPAEWMPPRAAYHCTYVRAWVQVKYYYGLSVDTAEKTALTNRLAGC
modifications: Streptmyces sp. MBE174

What was measured:
[1] = system: RNA (mRNA derived from yeast); test: degrading activity for RNA; assay type: biochemical
[2] = isoelectric point by Novex IEF pH-3-10 gel; assay type: physicochemical
Method: The molecular weight was measured by gel filtration chromatography with the use of Superdex G75 (manufactured by GE Healthcare). An elution position corresponding to a molecular weight of about 16 kDa was confirmed as a peak top from a column. Since the value was much coincident with a molecular weight (about 17 to 21 kDa) of an enzyme produced on SDS-PAGE, it can be determined that NucS exists as monomer. The isoelectric point was measured by using Novex (Registered Trademark) IEF pH-3-10 gel (manufactured by Invitrogen); and pl was 10.
The specific activity of NucL was 5.6×10^4 U/mg-protein at 37 degrees Celsius in 20 mM of Tris/HCl at pH 8.5 that contains 1 mM of MgCl2 and 1 mM of CaCl2. The isoelectric point was measured by using Novex (Registered Trademark) IEF pH-3-10 gel (manufactured by Invitrogen); and then pl was 7.0. Then, it was determined that a N-terminal amino acid sequence of the purified enzyme was DSVRIHDIQGTTR. The sequence matched 12 out of 13 amino acids of putative protein (putative secreted hydrolase) coded on a genome of Streptomyces scabiei 87.22, and of putative protein (large secreted protein) coded on a genome of S. avermitilis MA-4680.

[3] = system: Deoxyribonucleic acid sodium salt from salmon testes; test: effects of divalent metal salt on enzyme activity; assay type: biochemical; conditions: 20 mM Tris/HCl pH 8.5, 1 mM CaCl2, 25 degrees Celsius
Method: Effects of divalent metal salt on NucS and NucL were examined. NucS or NucL was added to a reaction solution that was obtained by adding, as substrate, Deoxyribonucleic acid sodium salt from salmon testes 0.4 mg/mL (manufactured by Sigma-Aldrich; Cat no. D1626-1G) into 20 mM of Tris/HCl at pH 8.5 that contained 1 mM of CaCl2 and 0 to 20 mM of MgCl2 or MnCl2; and the mixture was incubated in ice for 30 minutes. Then, the nucleic-acid degradation activity was measured at 25 degrees Celsius for 15 minutes. […] Incidentally, in the present test, in order to enhance the stability of the enzymes, 1 mM of CaCl2 was added to all the reaction solutions.

[4] = system: linear double-stranded DNA (pUC18 plasmid cut by BamHI, SacI, SmaI); test: degradation pattern of linear double-stranded DNA; assay type: biochemical; conditions: for degradation of linear double-stranded DNA regardless of the structure of DNA strand ends: 5'-protruding, 3'-protruding and flush ends; for efficiency of degradation of linear double-stranded DNA compared with circular DNA: comparison of FIGS. 12, 16, 17
Excerpt: With the use of the standard specific activity measurement method, as well as of a substrate obtained by making circular DNA (pUC18 plasmid) linear by using restriction nucleases BamHI (which generates a 5′-protruding end), SacI (which generates a 3′-protruding end), and SmaI (which generates a flush end), a degradation reaction took place with the use of NucS and NucL (referring to FIGS. 16 and 17).
Given the above results, it is presumed that NucL has a reaction style called an endo-exo type.

[5] = system: salmon DNA (double-stranded DNA) and thermally-denatured DNA (single-stranded DNA); test: reactivity test for single-stranded and double-stranded DNA; assay type: biochemical; conditions: 15-minute standard specific activity measurement method
Method: With the use of a 15-minute standard specific activity measurement method, the reactivity of each enzyme was tested for salmon DNA (double-stranded DNA) that was dissolved at low temperatures, as well as for the same DNA (single-stranded DNA) that had been subjected to thermal denaturation at 95 degrees Celsius for 10 minutes. […] That is, it can be said that NucL is an enzyme that efficiently works on single-stranded DNA.

[6] = system: Deoxyribonucleic acid sodium salt from salmon testes; test: effects of monovalent salt on enzyme activity; assay type: biochemical; conditions: 10 mM Tris/HCl pH 8.5, 1 mM MgCl2, 25 degrees Celsius
Method: Effects of monovalent salt on NucS and NucL were examined. At each concentration level of NaCl, the nucleic-acid degradation activity was measured at 25 degrees Celsius for 15 minutes by using, as substrate, Deoxyribonucleic acid sodium salt from salmon testes 0.4 mg/mL (manufactured by Sigma-Aldrich; Cat no. D1626-1G) in 10 mM of Tris/HCl at pH 8.5 that contained 1 mM of MgCl2 and 0 to 1,000 mM of NaCl. […] Substantially similar results were obtained even in the case of using KCl (referring to FIG. 8).

[7] = system: Deoxyribonucleic acid sodium salt from salmon testes; test: effects of pH on enzyme activity; assay type: biochemical; conditions: 25 degrees Celsius, 15 minutes, 1 mM MgCl2, 1 mM CaCl2
Method: At each level of pH, the nucleic-acid degradation activity was measured at 25 degrees Celsius for 15 minutes by using, as substrate, Deoxyribonucleic acid sodium salt from salmon testes 0.4 mg/mL (manufactured by Sigma-Aldrich; Cat no. D1626-1G) in 20 mM of the following solution containing 1 mM of MgCl2 and 1 mM of CaCl2: 2-morpholino ethanesulfonic acid; monohydrate/NaOH(MES, pH 5.5 to 7.0); 3-morpholino propanesulfonic acid/NaOH (MOPS, pH 7 to 8); N-tris(hydroxymethyl)methyl-3-aminopropanesulfonic acid/NaOH (TAPS, pH 8 to 9); N-cyclohexyl-2-aminoethanesulfonic acid/NaOH (CHES, pH 9 to 9.5); or N-cyclohexyl-3-aminopropanesulfonic acid/NaOH (CAPS, 9.5 to 10).

[8] = system: circular DNA (pUC18 plasmid); test: reaction styles in initial stage of degradation of circular DNA; assay type: biochemical
Method: According to the standard specific activity measurement method, reaction styles in an initial stage of degradation reaction for circular DNA (pUC18 plasmid) of NucS and NucL were analyzed (referring to FIGS. 14 and 15). […] The degradation of circular plasmid DNA executed by the single strand-specific nucleolytic enzyme is considered to proceed as the molecular weight degreases due to accumulation of endo-type cleavage of single strands.

[9] = phosphodiesterase activity test; assay type: biochemical; conditions: 100 mM Tris/HCl pH 8.5, 1 mM MgCl2, 1 mM CaCl2, 1 percent glycerol, 25 degrees Celsius
Method: (§1) Bis(p-nitrophenyl)phosphate and p-nitrophenylphosphate were used as substrate. The method of Tomoyeda et al. (referring to Archives of biochemistry and biophysics. 131(1), 191-202, 1969; the contents of the document are incorporated herein by reference) was used. In 100 mM of Tris/HCl at pH 8.5 that contained 1 mM of MgCl2, 1 mM of CaCl2, and 1 percent of glycerol, with the use of a reaction solution that contained 0.2 percent of the above substrate, the phosphodiesterase activity and phosphatase activity of both enzymes were measured at 25 degrees Celsius.

[10] = phosphatase activity test; assay type: biochemical; conditions: 100 mM Tris/HCl pH 8.5, 1 mM MgCl2, 1 mM CaCl2, 1 percent glycerol, 25 degrees Celsius
Method: as §1

Row | Molecule | RNA degrading activity [1] | isoelectric point (pl) [2] | requirement of divalent metal salt for activation [3] | reaction style presumed from linear DNA degradation [4] | degradation of linear double-stranded DNA regardless of the structure of DNA strand ends [4] | efficiency of degradation of linear double-stranded DNA compared with circular DNA [4] | efficiency of degrading thermally-denatured DNA compared with native DNA [5] | NaCl concentration up to which the enzyme remained active [6] | optimum reaction pH [7] | reaction style in initial stage of degradation of circular DNA [8] | phosphodiesterase activity [9] | phosphatase activity [10] | activity in the presence of 1 to 2 mM of MnCl2 compared with MgCl2 [3] | activity in dependence on NaCl concentration ([6]; 0 to 1,000 mM NaCl)
1 | B1 | did not show RNA degrading activity | 7.0 | required divalent metal salt for activation | endo-exo type | can degrade | more efficiently | about five times higher | up to 1,000 mM | around 8.8 | reaction pattern similar to a single strand-specific, endo-type nucleolytic enzyme | has | has |  | 
2 | B2 | showed RNA degrading activity | 10 | required divalent metal salt for activation |  | can degrade | at the same level of efficiency | at the same level of efficiency |  | around 8.5 | degradation activity of an endo-type style | does not have | does not have | substantially the same level of activity | high when the concentration of NaCl was low
